From patent US20060183886A1

Target: asialoglycoprotein receptor on Hep G2 cells (human (Hep G2 cells)) (UniProt P07306)
Assay: cell-based or functional assay

Chain of UniProt P07306 (P07306 whole entry): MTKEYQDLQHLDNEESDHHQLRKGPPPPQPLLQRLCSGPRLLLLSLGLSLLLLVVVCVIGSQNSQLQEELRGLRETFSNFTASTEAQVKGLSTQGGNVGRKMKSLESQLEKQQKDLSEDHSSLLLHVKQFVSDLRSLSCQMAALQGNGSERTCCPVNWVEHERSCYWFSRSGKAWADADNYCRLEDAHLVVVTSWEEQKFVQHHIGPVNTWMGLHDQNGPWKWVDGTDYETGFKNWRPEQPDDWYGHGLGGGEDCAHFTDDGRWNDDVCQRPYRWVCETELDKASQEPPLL

cell association (uptake) by Hep G2 cells, 1 uM conjugate alone, 37 C, two hours (pmol per 10^6 cells): 7.8
cell association (uptake) by Hep G2 cells, 1 uM conjugate with a 100-fold excess of free 5, 37 C, two hours (pmol per 10^6 cells): 0.42
uptake by Hep G2 cells, 1 uM conjugate, 37 C, about 24 hours (pmol per 10^6 cells): 26.6
Substance: [YEE(ah-GalNAc)3]-SMCC-AET-pU^mpT7
